Test: soluble on expression in E. coli; label from the status in PepcDB or PDB records

Soluble on expression in E. coli, not soluble:
MSLKRVLAAEYVRMSTEHQKYSLDNQSEYIREYSLRNNITIIHTYNDAGKSGLNISGRPGLKALLDDVINKKITISAILVYDVSRFGRFQDADEAGHYSHLLRKNGVKIIYCAEPFSEEHPEMFMLGLSFSRHGAASYSRNLSEKVFLGQVNLIKRGYHQGGVAGYGLRRLLIDEHEGHHHHHH, LRFQMNTRQFVSCWRSHKDELIATYFDASTDSQVGKAISDLGLNAGQTASLRTVIDGVLTDAFYSLLLGLDGAASIGPVQQPYEIRAEDGSVIRDIEPEAWAQFHDRSA, MQDNSTKYLLYIQTATSNHLETNCVFLHCDYILKVPINKLVSYYAKLHLSSQSVLIETAKNILNINKLVPIYINPKTILFPLKHKRAPIQIYINAHYIVGMTAIENSTLIHFQEGIQLEVDEPFSLVSKKCHESLALKHFIENTISNLEHHHHHH, GPGSMSALWARFTEKLKGSGYTLSDLVYCSEDTFLTLVANMNAFTPLQIASLAKEWQRSLSAAATPTATVSGSALPISRRHAESTRLSSSPVRSSALNRATLPATGAAETPPNHSTLSTALRKNSFVPPRRSPAKVKEEAEYLLTKLGAQSGAEYQVSLTEGIVAVEASPEAWGPLLDRVSRMHVTSHRDSAAAATPLATELQLLWKLCSPATLRKMEKACVSGAPFGLSNQDDADGLCSSAVVLYGKDATRLAAPAEELEQLFREGWGLVAFDVAVGKARTVTKEEAQDLNANLYRFSMEQCLEMLEEAGFDAFHIPSRNAVAVCHMHQLMPRFVVFVSTLEPVVVTRRLGDAVPAVGNGRPSRAPPAPAASPSPSAVAAAAAALPAARRSINGGDDVLVPASRSSRNSEDLQCAVHSKKTVEFWSPTEKRLLCSHCLYYDGYSQENCIPIEQAAREEAPRLERWVQNAITFSQEIKSVFDLFEAAQTDVSQTHKQVRSDIAHSFTRLRARLDALEANLQQQCQQKAQQNLQVLQDTLSRITATVQFVSEVVQDADEPVAAYRGGVADTNTCVALLRSAQRAFGAWEPVTISAYEDVRIVDGSALLQPVEEALKAVQSISSEAGKVQLPEAIDVNYLKSDCDV, MSNLNPCMTCGACCAFFRVSFYWAEADDAGGTIPARLTEQISPFHRCMSGTNQKNPRCIALAGTPGKNACCTIYKNRSSTCREFAMSGENGVVNEACNRARAKYGLTPL, MSNNGSSPLVLWYNQLGMKDVDRVGGKNASLGEMITNLSGMGVSVPNGFATTADAFNQFLDQSGVNQRIYELLDKTDIDDVTQLAKAGAQIRQWIIDTPFQPELENAIREAYAQLSADDENASFAVRSSATAEDMPDASFAGQQETFLNVQGFDAVLVAVKHVFASLFNDRAISYRVHQGYDHRGVALSAGVQRMVRSDLASSGVMFSIDTESGFDQVVFITSAWGLGEMVVQGAVNPDEFYVHKPTLAANRPAIVRRTMGSKKIRMVYAPTQEHGKQVKIEDVPQEQRDIFSLTNEEVQELAKQAVQIEKHYGHPMDIEWAKDGHTGKLFIVQARPETVRSRGQVMERYTLHSQGKIIAEGRAIGHRIGAGPVKVIHDISEMNRIEPGDVLVTDMTDPDWEPIMKKASAIVTNRGGRTCHAAIIARELGIPAVVGCGDATERMKDGENVTVSCAEGDTGYVYAELLEFSVKSSSVETMPDLPLKVMMNVGNPDRAFDFACLPNEGVGLARLEFIINRMIGVHPRALLEFDDQEPQLQNEIREMMKGFDSPREFYVGRLTEGIATLGAAFYPKRVIVRLSDFKSNEYANLVGGERYEPDEENPMLGFRGAGRYVSDSFRDCFALECEAVKRVRNDMGLTNVEIMIPFVRTVDQAKAVVEELARQGLKRGENGLKIIMMCEIPSNALLAEQFLEYFDGFSIGSNDMTQLALGLDRDSGVVSELFDERNDAVKALLSMAIRAAKKQGKYVGICGQGPSDHEDFAAWLMEEGIDSLSLNPDTVVQTWLSLAELKK, VKIDNKTFQVNGRVLLDDLTEEFGIEFDDSEDIDTIGGWLQSRNTNLQKDDYVDTTYDRWVVSEIDNHQIIWVILNYEFNEARPTIGQSDEDEKSE, MAHHHHHHMDGQSSSPAEPASGSVALLYDYTTANDAPVEVHRAAAGRLACSYRAECLAIENGFGHLMPPCLGTSQSPTRILVATDSLSAIEAFRCPLAMRDRVTEAILIMPLSLVKRGRPVEFIFSPSHCGIPRNEATDEEATISISLPQEGIPIWHVDFLTAVKRLCWKEFQEEAEGAYTARQAFVGVARTPFLISSQK, MRLIPLGAAALAGALALAPAARAEMSAAEREAVRAEVRAYLLENPEVLMEAFTALEQRQQLDQVNADLARLQDHSSEIYTDPASWAGGNLQGDITVVEFIDYRCGYCRKANAEVEELVASDGNIRFVLKEYPILGEESVLASRFAISVLQIAGPEPYKAVHDKLITFRGDITTEALGRLADEMKLDRAAILAHMDKDEVTAVIAANHKLAETLEISGTPTFVVDRTMVRGYVPLDGMRQIVEGQRKG, MKLTGFLKQNVRVRFAPSPTGHLHIGGLRTAFFNYLFAKKYGGDFILRIEDTDRTRFVDDAQDQIYSSLNFYNLLPDEGPREGGKFGPYEQSKRLEIYRNAAYRLIDSGHAYRCFCSENRLDLLRKTAEKRGEIPKYDRKCANLSSRDAVKMEQNGEKFVIRFKLDKQNVQFHDEVFGSVNQFIDESDPVLLKSDGFPTYHLANVIDDRKMEISHVIRGMEWLSSTGKHTILYKAFNWTPPKFVHLSLIMRSATKKLSKRDKDAFVSYYSEQLGALPEAVLNLMIRNGAGIRNFDAEHFYSLDEMIEQFDLSLLGRRNLLLDSDVLQKYSRMAFQKSDFKELYPRIIDILNKKSNYSTSREDIQKIVTFLKAKEENFGFLSSLSTEFSWFFTRPQSSQLLKESHPNVDLRNILNSLLEIEVFNSESLEYLAKNHQLNLAKAMGIVRISLIGSKKGPPISELVEFFGMTECHRRIRIMQELL, MGSDKIHHHHHHMRCSPCRMQQAHTPPHSAKSIKHDVKRRIILDAARRMFAHDGAGSVSMRNLAREVGCSAAVLYRYFGSRESILWELRCEGIVLLNDALMGAADAADPLLRLQQLGRAYVSFGIDNLEYYELMFRTPFYEFDAGSLPDGLPDDALVLLHSTAAECLELGYFAGSDVTTVVSSMWSLVHGLVSLILNGRAPLMMGALDTHAMIDRVPDFIAGLARAARGGI, MDHHSKAKELLQQRDELDGKIKELMLVLETNNSTMDSPLLDAEGYPLNTIDVYAVRHARHDLICLRNDRAALTEKIVVEMENENKEVSGQTATSEEKPVHRTSNEPFVKISSVVELSPADIGGFRKDDLIIQYGNLHHGNFNDMQEVAQITKQSEDKIIRVTVIRENRPVRLEICPKKWSGPGLLGCNIVPISGANV, MGSDKIHHHHHHSGSFDPVTGAYTTDPITVTLTPKTVAVSTSVIANGERVYWATDKYPQGAGTFYWGSHTYTLESASDVTLAIPGINASGVCTATGSGTSLTINGCFSFSHNGTIYMGKSASCKSFFSLQSNLSSLTNFGDFVALTLGPGTNTIQLNKTGITDVNTTSFTYPSTTRSTSYRWTTYDINLQATLSAKTPPYTYLYCSVSQGLRVIMTTGGVVPNPFAMVPAASKPAYSPTISYSPALPIINTIAVNIRNITAIDILPRTVFNTGTISAWRTTYMEQPLTVTGQGNITRDFGASQNFNVLESWTCATTGQIDFRIMRDNTNANVCSGATYTHPVQTPQSLTAQWKAQSSTASGAWSARATVTFTLP, MGSDKIHHHHHHMHYNDQGADFKYLIVNERDKRFGLSVTTVGFQAIRAGSVYPPRNHPDAYYFTAQKGRVLHEYQLVYITKGRGTFASDTTPSVDISKGQILFLFPGQWHTYAPLQKTGWNEYYIGFEGPIIDNLVKNSFISKESQILDIGINEELASLFARALEVAEADKTAAQQYLSGIVLHIMGAVLAISQNKRYEVDNAAQKIESAKIIMHENVYKDIDPEELAMKLGISYSWFRKVFKEYTGYAPAKYFQELKLRKAKQLLIESSMSVKEICYELNYTSTEHFFSVFKKRTNFTPTEYRNFGRGGKEKENENE, MRKAERVRKTNETDIELAFTIDGGGQADIKTDVPFMTHMLDLFTKHGQFDLSINAKGDVDIDDHHTTEDIGICLGQALLEALGDKKGIKRYGSAFVPMDEALAQVVIDLSNRPHLEMRADFPAAKVGTFDTELVHEFLWKLALEARMNLHVIVHYGTNTHHMIEAVFKALGRALDEATTIDPRVKGIPSTKGMLLEHHHHHH

Soluble on expression in E. coli, soluble:
MSLTRPPALSDVPDAAALPAVTAVEAMHCRIPFPSPLQLGKVHMTHRDYVLVRLLLADGGTGHAIGFERGMPLLDLVTRVAPFYVGRSPAMRAAARRAAEAATPPARAVLMRGISLLDIAMWDALARNKGLPLWALLGGARRRVPVMPVVGYGASAPAVAEQCRDLAGRGFRTVKVMIDGSDLAADAALLDAVRKALPDEVAFGIDAHWSWTTIADAMPTCRRAEELGAIFIEDPFLPQQWRTIAELQTQLRVPLAVGEDVIDRYGFRDLAEAARILRVDASVSGGVTGAIEALHLATIMDREVIPHVFPALHGQLAAAFPAARCVEMILPEVGADPVDRLFAEEARIEGGDLLVSETPGAAIAFDWDKARDFALRSERVGEGHHHHHH, MAAYQVLIVGAGFSGAETAFWLAQKGVRVGLLTQSLDAVMMPFLPPKPPFPPGSLLERAYDPKDERVWAFHARAKYLLEGLRPLHLFQATATGLLLEGNRVVGVRTWEGPPARGEKVVLAVGSFLGARLFLGGVVEEAGRLSEASYPDLLEDLSRLGFRFVEREGEVPETPSTPGYRVRYLAFHPEEWEEKTFRLKRLEGLYAVGLCVREGDYARMSEEGKRLAEHLLHELG, MQDYTVHIVDDEEPVRKSLAFMLTMNGFAVKMHQSAEAFLAFAPDVRNGVLVTDLRMPDMSGVELLRNLGDLKINIPSIVITGHGDVPMAVEAMKAGAVDFIEKPFEDTVIIEAIERASEHLVALE, MAPKDITFVERCYKYIDMNKNNWSPYTVTSTKSWVKNYIEPFFKNLKLTEVNPSSVQAFVNYNFNNSTFTSAKVRYSFLSSVIREAYRLREIQENSCDFIKLPLEHHHHHH, MSLHPETSTELADIRKKAGRRRSIVFVAGNFNIVHPGHLRLLKFAADCGDYLVVGVTADPGYDWMLPAELRLEGVRAIGVVDHAFLLHDAPEDFIAALQPSVVVKGKEHEGADNPEKAVLDGYGGRLVFSSGEVAFSSLDLIKREFREFNPSSIVKPLDYPRRHRFELLELKNVLAGFPKLRVLVLGDLIVDEYIACDPLGLSQEDPTIVVTPVLRELFVGGAGIVAGHAAGMGAQVALLTVGGGDAMADFARERLASYNVDATILTDESRPTTTKQRFRAGNKTLLRVSHLKQHDVDADLQTRMLETIEHRLPSTDLVVFSDFNYGCLPTRLVEAIGQACRARGVPMVADSQSSSQVGDISRFAEMLLIKPTEREARLAMRDFDSGLVVLVEALREKARAKNVILTLAAEGLLVHAETGSAGTVVTDRLPAFNTAPKDAAGAGDSFFVCAALALAIGTDIWRSAYLASIAAACQVGRIGNIPVTARDIIRELDTEGHHHHHH, KTRPYMEEVLYVWKLKQLHNKIFRKLKSIKAAASNDDVKALTTLKFYYTTQRQVFELDNNTLTMSSVNKELEAIDQIEVDKSLHLDIASFEEGWIDTY, DEDDSADNIHAVSSERWRIHAATEIEDINTFFGTEYSSEEADTIGGLVIQELGHLPVRGEKVLIGGLQFTVARADNRRLHTLMATRVK

From the DeepSol protein solubility set
